Measured values taken from US20060251661A1.

Molecular target: OVA peptide 257-264 (SIINFEKL) presented on MHC class I molecule K^b of antigen presenting cells (mouse; chicken)
Assay: cell-based or functional assay

Substance “α-β T cell receptor (TCR) of B3Z CD8+ T hybridoma cells, specific for OVA257-264 presented on K^b” has a % of B3Z cells activated (lacZ reporter, flow cytometry); lymph node cells of mice with B16/OVA tumors injected with α-gal glycolipids of 1.07 to 3.66% and a % of B3Z cells activated (lacZ reporter, flow cytometry); lymph node cells of mice with PBS treated B16/OVA tumors of 0 to 0.14%.
